The values below come from a protein production outcome set (Wang et al. 2014).

The data set in a line: label from the status in PepcDB records.
For “PSLPGIEAAARYLPATQGMEIGGDFYDLVATVGRAAAVIGDVQGHNVTAAGLMGQIRTAVRAYTTVGQAPGQVMRSTNRLMIDLGTDLFASCVYLRLDPARQRVVMARAGHPPPLLRKPDGQVRVLDLAGGPLLGIDADATYTTTEFALAPGSVLALYTDGLIESPGIDIEDALAELGERLAESGDEPLDELADRLVRHTATAEERLDDIALLLLRARA”, the protein production entry is listed as “failed”.
As to “MEVTNGLNLKDTELRLGLPGAQEEQQLELSCVRSNNKRKNNDSTEESAPPPAKTQIVGWPPVRSNRKNNNNKNVSYVKVSMDGAPYLRKIDLKMYKNYPELLKALENMFKFTVGEYSEREGYKGSGFVPTYEDKDGDWMLVGDVPWDMFSSSCQKLRIMKGSEAPTAL”, the protein production result is reported as “not failed”.
On to “MEEVLKLKIPASTANLGVGFDSIGMALDKYLHMSIRKIERSNWEFLYYSSELEGLPKDENNYIYQTALNVAHKYNVTLPSLQIEMRSDIPLARGLGSSASALVGALFIANYFGNIQLSKYELLQLATEIEGHPDNVAPTIYGGLIAGFYNPITKIT”, for which the protein production entry is recorded as “failed”.
To “MNTLIIAKKEIVSAFRDKRTFLFMLAFPIVLIMILGTALTNAFDQQAAVGEVRVLYKDNSDGAFSQGFKTFVKEAKTSGVHFKKVLSDMDEKQEIKQGNYDAYLEIENSGIKLYQMDKNSMKNSIIQGMLTAFANRYNAAAEIIKAAPEQAGAVLGDAPGDNYIKETSLSSDRKPSSMDYYAVAMTTLIALYSALSASYLIRGERLRKTADRLIAAPVHKGEIFAGKLIGNLVTNGLCIFAVVAVSKYVFKAYWGEHLGLVAAVLFSIVLFAVCLGLGVSYLTRTGEAAVAIINVLIPLVAFFGGAYFPVDDAEGVLALITDLSPLAWTNEAIMNIIFADDLAAGLPAILLNIGLSLLFLLIAVVSLQRREGL” belongs “failed”.
“MSTSQGSPNWPRAERVARLEVLETQILARPAEVYAEVLALWPGLSAAVPSPASPAPDSCPGPSELAAQATALQLLSRCAVLLGEDGAAANHAETGRRLAHDLGLRSLEARCLEVLGVVRGRQGDVKQAAWLLRRSLYLLHALGDTPGQGRLLGRVGDLLERLEEYPQALLFYRAGLAQLPAARPVTAAVQVGLARTLHQLGEYAESQELAAQALAVCQEVGLPQLEAQVQLQQALTQLALGELDASRRHAEQAQALAAPRHAEQAQALAAPLEHTVPGAAAWVLGEAALVRGDLAQAREGLGRAEELANTPPLLARVRGSQSRLYEQLGDPAQALRCLREQRELEQQHRARLAEQRAGLLAEQIRYEVLRREAELQRKRRNERAQAASALRETRVELSRQASHDQLTGLANRSFFYTRARQALDLLAPGRSLGLIVADIDHLKAINDRFGYAVGDLLITELARRLCEAVRPGDLVGRLSGDEFVMLLSDLASPGDLRLVAERLLQQLREPCVCGTELVVPTVSLGYVVAPQDGGDVELLQKRADLALFQAKAQGRNMAVAFAGDMSAEEEERRMLSQDLRHAVRHGQLQLHYQGIFLLPGQRLSGFEALVRWPHPKRGMIPPDRFIALAEESRLILELGRWVLDEACRQARAWQLPERGLTMAVNVSALQFEQSDFVAGVRACLEQHGLPGHSLVLELTESMVHRDPRLAKQTLRELQALGVKVAMDDFGTGYSSLSMLKSLPFGLLKIDREFLQDLSAASEQFAASQQFIEVMVRLAHNLQMRVVAEGVETAEQYDLLCGMGCDEAQGYWLARPLPPAEAAALLPAGAPDSPWPTQSPSSQQARQESPRQSLSED”: the protein production entry is reported as “failed”.
For “MGYSRSREIRRWEMRKMKAAGLSVEEAYSDEEGGLVPDLVYKESSSEFLGNKVFDPVLRNKIEIEKPGTEISAVAKRGSVFLSVHPRSYVAPSASGEVDREVSQRLPIESFRDDLMEFVGKHRVIVLVGETGSGKSTQVPKYLYQEGYGDKGIIGCTQPRRAAAISLASTLKREMGCAVGYSIRFDSTTTQDTKIRYMTEGILLQELLADKMLRRYSVVILDEAHERTTNLDISMGLLKLALKERDDLRIIIMSATIEAQKLCNYFGCPAFNIEGRSYPVETRYLSVNVDDYVEWTVKKILYIHENCGEGDILVFVTGRDDVEGVVGIVNHCIRNKCFGEGSEGGRGLKVLPFYSQLPEEMQNRVFQAEKDVRKCIVSTNVAETSLTIPNIGYVIDTGLQKISVYSYDTGESLVTVPISRANADQRTGRAGRTRPGVCYRMYTADTYENDMLPSPVPEIQRTNIHNVVLLLLKHGVHDILGFDFVDRPSEELIQGALLGLHRLGAVCSRGLLTKVGKEMSELRLDPPLARMVLGAAGYGAVNEIASIASMLSVHEVFHRDFDKSSPLCHQGCDFLTLLNIFNAFIRQKNRSEWCNKMKVSEHALKRATETKRAVLMSLREMGVPISSTRSLDKIQRCIISSVHYNVARRRGKGYVCLSNFRACMVHPSSVLADSYSQYIIFYKHLSTRAEYMYCCSNISPQVILEEAGCYYRDRNGVFNIQKHPVIEDGLDREHNPFGSACSLTGARMPGKIALDENLYDRFEKWNESEESDEEPPKKIRRTRI”, the protein production entry is recorded as “failed”.
On to “MKAIMRRLIMTNFFNTPLFGLTLSVLAYTLGLSLYRRFPNPLTTPLLVSTALIIVILHYTGICYRDYYVGGSYLNSLIIPSTVALAVPFYKNLHLMRHHCKSILIGSTVACILNTTYTALIAKLFGMDYFLAISLFPKSVTTAMAVGISEKMQGITTVTLVVVVITGILTSVLGPVFLKMIGIKDPVAIGLSLGGTGHAVGTGTAFRYGQVAGAMGGLSIAVTGILYVFISPIVASLILR”, for which the protein production result is listed as “failed”.
On to “MFTFLMTVRTSRRVAFHSGKLPVVIGIVSFFAPLFSLSFLNLFTDNIDPHYMSLDKALAERTVIVITQSQILLPSTTYILLELKIINSELGRLALSASAINDMLGIFAMIVATTQATYIHVSHAIAYRDLVAVIIFFLIVFFVFKPMVQWIIDRTPEDKPVEDIYIHAVILTAFASAAYFVFFNMKYVLGPLIIGIIIPEGPPLGSALEAKFERLTMNVFLPISITFSAMRCDGLRILSQFTDIYFNIFLTLLILVIKLVACLTLCLYYKLPRSESLAVSLILSYKSFVEFVLYEAVLEEKFISQATYAFLILYSLLSAGIVPMVVRSMYDPKRKYVNYQKRDILHLEANSGLRILTCLHKPENVSETIAFLQLFSSPIHDFPIAVTVLHLVKLVGQINPIIVSHDKKLKRLHKNSYIHTANLAFRQFMQESLESVTVTTFTAFSHENLMHEDICTLALDRTTSMIVVPSGRKWTVDGMFESDDLAARQLNQSLLDRAPCSIGILVDRGQFSRKSYVTSKNRYNIDVGVLFIGGKDDREALSLVKRMKYNPRVRVTVIRLIFDHEIESEWDYILDNEGLKDLKSTESNEDILYTERIVTSVVEVVKAVQLLAEEYDLMVVGRDHDMTSQDLSGLTEWVELPELGVIGDLLAARDLNSKVSVLVVQQQQQQT”, for which the protein production result is given as “failed”.
Regarding “MRDTLPEWYKTKKNICDQMTEEINLWGYDMIETPTLEYYETVGVVSAILDQQLFKLLDQQGNTLVLRPDMTAPIARLVASSLKDRAYPLRLAYQSNVYRAQQNEGGKPAEFEQLGVELIGDGTASADGEVIALMIAALKRAGLSEFKVAIGHVGYVNALLMDVVGNEQRADRLRRFLYEKNYVGYREHVKSLNLSTIDKSRLMNLLSLRGGRAAIEEARGLIQTEKGKTALAEMTKLYEVLESYGASEYVKFDLTLVLHMSYYTGVVFEGYGNRLGVPLCSGGRYDELLSKFHRPAQATGFGVRIDLLVEALNGEIISN”, the protein production entry is given as “not failed”.
Regarding “MIVEVLIRVFFLICTAALGWGAGYILKLSSKEISSLLVYVISPFVIFVSILQSPADWTYFAYSLGALLTASVAAFLAYGLARMIWSDGRVNLFSFAAGTGNTGYFALPLAFALFNAQQIAIAVFIIIGINIYEFTVGYFIAAKGTFKTTDSLQKIVRLPILYAIILGMTFKKWGIDVGATLLSAMSNFKGAYSVLGMMVIGVTLASYQKIKIDWGFLIATLTWKHLIYPAVGVLIFYFITPVSIDTLAVIVMMLATPMAANTVVVANTLNLYPEKAAFSVMVSTFLAVVTVPLAIVWVTRLSR”, the protein production result is “failed”.
“MSSGKVIVYGGKGALGSAILEFFKKNGYTVLNIDLSANDQADSNILVDGNKNWTEQEQSILEQTASSLQGSQVDGVFCVAGGWAGGSASSKDFVKNADLMIKQSVWSSAIAAKLATTHLKPGGLLQLTGAAAAMGPTPSMIGYGMAKAAVHHLTSSLAAKDSGLPDNSAVLTIMPVTLDTPMNRKWMPNADHSSWTPLSFISEHLLKWTTETSSRPSSGALLKITTENGTSTITPQ”: the protein production entry is “not failed”.
Take “MLELLYTALLYLIQPLIWIRLWVRGRKAPAYRKRWGERYGFYRRPLKPGGIMLHSVSVGETLAAIPLVRALRHRYPDLPITVTTMTPTGSERVQSAFGNDVQHVYLPYDLPDALNRFLNKIDPKLVLIMETELWPNLIAALHKRHIPLVIANARLSARSAAGYAKLGKFVRTLLRRITLIAAQNEEDGERFVALGAKNNQVTVTGSLKFDISVTPQLAAKAVTLRRQWAPHRPVWIATSTHDGEESIVIAAHQALLHQFPNLLLILVPRHPERFPDAINLVRQAGLSYITRSSGEVPSASTQVVVGDTMGELMLLYGIADLAFVGGSLVERGGHNPLEAAAHAIPVLMGPHTFNFKDICARLDQASGLITITDAATLAKEVSSLLTDADYRNFYGRHAVEVLYQNQGALQRLLQLLEPYLPPKTHLEHHHHHH”: the protein production result is “failed”.
As for “MAPLLSLCMIVKNEAHQLRRCLQSVQPWVDEIIIVDTGSTDGTIAIACEFTPHVHAVAWQGDFAAARNAALAQATGEWVFYIDADEELVVTDAHWQDQLTAPGAHAINQWSLLRREQSSDRNWSEFWNVRFGRRFPDLHFAGALHEQLCYREREAVVGELQGVYLIHHNQQSQEQFLAKIRDRNIPILETMVQQGDRRLQNLVCLGDHYAACGDSDRSQAWYEQALEEIASAVEQGILPRETTWLRHLLFWVSYRAFEAKDYETAQYYLSYGLRFFDRYPPLLYVAGLFVFELGLPRGALPYFHRCLDLFEAGSYDRTEPFDRQWMTTQPAYSLGYTYMTLQERDRAIAYFQKTLKFNPDYPPAQMYLEQLLRASANQGLEHHHHHH”, the protein production result is reported as “failed”.
To “MVEPSLVLYGAPYERAVEVLEETLRETGARYALLIDRKGFVLAHKEALWAPKPPPLDTLVTLVAGNAAATQALAKLLGEARFQEEVHQGERMGLYVDEAGEHALLVLVFDETAPLGKVKLHGKRAAEALARIAEEALANPPRLALDTEYREGAEALLDDLLRN” belongs “not failed”.
To “KDPLLNSLIYVSRYYGLANSPEALVNGLPLSDGKLTPFLLPRAAERAGLVAKENRAELEKISSLILPAILVLKGGDSCVLNSINMETREAEVTTLESGMVPISIPLEDLLEQYTGRYFLVKKQFR” belongs “failed”; to “MKILKNSYESYIIAEFFKYFLITFLFFFFVFFINQILFFMRILLQNYVPFFKAFIFIIYSLPMVIALSPPFASLISVILTIHKFKLHNEILAFRSIGISIFDLLVPFFKLGIVIAFVSFISNDILLPLGSIGRLKIFNEIKEEVPHLVLKPYSSKQYGDLIFVSGEKSENGYKNVTFFDNTGLKGFDRIFMAKNLDIRKENFQVYFILNDVLSIALTDSESGFYDYFYADKMKYSIDQVTFSDSFLLNYVTPSQMSMRDVIKLIKKQNNLIADSNIKNNLEGDFLSLNFSNLYLNYLYNQNYYVDESYVFENLNYMYNLNLNFKPYQDRSMKQNLALFNLEFYQKISLPLSVLFFIFLAFSMGMYSNRKYSIILELVISIIVCVFYWVMFIGGKVYTVQYAPSPIIVTILPNLILIIAGAILFLRLLKK”, “failed”.
